Measured values as given in publication PMC4937415, “Peroxiredoxin 1 interacts with and blocks the redox factor APE1 from activating interleukin-8 expression” (Scientific Reports, 2016).

Molecular target: the molecule itself
Test: SEC; as a6, but HeLa cells treated with 20 μM E3330 for 4 h; fractions 23 to 28 probed with anti-PRDX1

B1: Peroxiredoxin 1 (PRDX1) (natural protein, human (endogenous in HeLaS and HeLa), UniProt Q06830 1-199, looked up)
chain: MSSGNAKIGHPAPNFKATAVMPDGQFKDISLSDYKGKYVVFFFYPLDFTFVCPTEIIAFSDRAEEFKKLNCQVIGASVDSHFCHLAWVNTPKKQGGLGPMNIPLVSDPKRTIAQDYGVLKADEGISFRGLFIIDDKGILRQITVNDLPVGRSVDETLRLVQAFQFTDKHGEVCPAGWKPGSDTIKPDVQKSKEYFSKQK
notes: endogenous PRDX1 of HeLaS and HeLa cells; monomer 22 kDa, dimeric form 44 kDa on blots; source: endogenous, HeLaS nuclear, cytosolic and total extracts; endogenous, HeLa nuclear extract
- stoichiometry N: 2
